From US8859492
Where no end group is shown, it is not given here. [ ]: non-standard residue; d: D form. Cha = N[C@@H](CC1CCCCC1)C(=O)O

Experiments:
[1] = biological target: Recombinant human somatic ACE (sACE-1: Leu30-Leu1261, with C-terminal His tag) (human) (UniProt P12821); assay: cell-based or functional assay
[2] = biological target: Recombinant human somatic ACE (sACE-1: Leu30-Leu1261, with C-terminal His tag) (human) (UniProt P12821); assay: affinity based on the IC50 of sACE-1 inhibition (fluorogenic substrate cleavage)
[3] = biological target: HCV protease (hepatitis C virus); assay: affinity of metallopeptide for HCV protease; method not described

Chain of Recombinant human somatic ACE (sACE-1: Leu30-Leu1261, with C-terminal His tag) (human) (P12821 30-1261 limits assumed): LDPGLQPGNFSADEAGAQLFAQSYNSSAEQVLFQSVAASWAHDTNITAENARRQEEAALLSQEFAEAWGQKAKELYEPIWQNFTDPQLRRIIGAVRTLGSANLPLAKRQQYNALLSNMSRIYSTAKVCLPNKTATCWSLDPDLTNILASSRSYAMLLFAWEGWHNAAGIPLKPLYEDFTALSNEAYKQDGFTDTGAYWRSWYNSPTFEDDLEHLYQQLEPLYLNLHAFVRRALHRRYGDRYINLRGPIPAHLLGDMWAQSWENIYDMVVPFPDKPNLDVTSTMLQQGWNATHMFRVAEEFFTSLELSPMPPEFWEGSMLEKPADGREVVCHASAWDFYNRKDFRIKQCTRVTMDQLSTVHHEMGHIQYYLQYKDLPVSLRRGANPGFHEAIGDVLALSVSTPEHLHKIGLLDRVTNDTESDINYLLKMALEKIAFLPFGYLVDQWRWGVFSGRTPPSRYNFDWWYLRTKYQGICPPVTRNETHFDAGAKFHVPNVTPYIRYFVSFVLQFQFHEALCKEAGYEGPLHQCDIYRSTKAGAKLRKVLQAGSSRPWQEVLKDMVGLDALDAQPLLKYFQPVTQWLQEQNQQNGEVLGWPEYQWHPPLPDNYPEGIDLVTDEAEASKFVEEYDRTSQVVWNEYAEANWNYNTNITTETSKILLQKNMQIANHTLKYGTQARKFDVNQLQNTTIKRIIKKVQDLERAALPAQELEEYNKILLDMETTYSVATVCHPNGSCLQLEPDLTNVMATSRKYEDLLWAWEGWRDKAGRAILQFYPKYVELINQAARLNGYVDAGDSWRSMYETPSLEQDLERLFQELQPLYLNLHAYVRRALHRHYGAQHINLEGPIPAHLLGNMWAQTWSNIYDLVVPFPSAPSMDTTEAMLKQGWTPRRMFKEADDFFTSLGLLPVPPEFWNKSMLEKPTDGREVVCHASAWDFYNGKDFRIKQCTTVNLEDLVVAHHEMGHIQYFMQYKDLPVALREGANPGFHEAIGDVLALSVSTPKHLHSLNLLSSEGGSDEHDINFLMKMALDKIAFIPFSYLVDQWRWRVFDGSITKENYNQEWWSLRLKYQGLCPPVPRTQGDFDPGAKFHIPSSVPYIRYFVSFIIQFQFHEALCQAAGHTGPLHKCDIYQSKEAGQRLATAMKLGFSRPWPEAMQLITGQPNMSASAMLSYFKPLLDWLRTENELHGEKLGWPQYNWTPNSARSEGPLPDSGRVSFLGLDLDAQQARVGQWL

| Substance | second order rate constant for inactivation of sACE-1, ascorbate + H2O2 [1] | IC50 of sACE-1 inhibition (cleavage of fluorogenic substrate) [1] | Ka [2] | second order rate constant for inactivation of sACE-1, H2O2 [1] | second order rate constant for inactivation of sACE-1, ascorbate [1] | affinity [3] |
| --- | --- | --- | --- | --- | --- | --- |
| Co-GGH (M-chelate without lisinopril) (peptide) | < 333 M⁻¹ s⁻¹ |  |  |  |  |  |
| GGHDEMEEC (SEQ ID NO: 71) |  |  |  |  |  | 48 µM |
| GGHD[dE]LI[Cha]CP[Cha]DL |  |  |  |  |  | 0.01 µM |
| Ni-GGH (M-chelate without lisinopril) (peptide) |  |  |  |  | < 83.3 M⁻¹ s⁻¹ |  |
| Ni-GGH-lisinopril (peptide) |  | 150 nM | 6.67e+06 M⁻¹ |  | 500 M⁻¹ s⁻¹ |  |

Continued, in another order:

| second order rate constant for inactivation of sACE-1, ascorbate + H2O2 [1] | IC50 of sACE-1 inhibition (cleavage of fluorogenic substrate) [1] | Ka [2] | second order rate constant for inactivation of sACE-1, H2O2 [1] | second order rate constant for inactivation of sACE-1, ascorbate [1] | Substance | affinity [3] |
| --- | --- | --- | --- | --- | --- | --- |
| 1170 M⁻¹ s⁻¹ | 90 nM | 1.11e+07 M⁻¹ |  |  | Co-GGH-lisinopril (peptide) |  |
| 2530 M⁻¹ s⁻¹ | 1470 nM | 680000 M⁻¹ | 467 M⁻¹ s⁻¹ | 1700 M⁻¹ s⁻¹ | Cu-GGH-lisinopril (peptide) |  |
| 167 M⁻¹ s⁻¹ | 17000 nM |  | < 33.3 M⁻¹ s⁻¹ | < 16.7 M⁻¹ s⁻¹ | [Cu-GGH]^1- (peptide) |  |
